In the DeepSol protein solubility set:

Assay: soluble on expression in E. coli; label from the status in PepcDB or PDB records

Sequence | soluble on expression in E. coli
SLVTRVTLAPGVRVMVAPYPPFLLPLQGRLNCLYMRLRSPVVVPPGDSFSIELKVPFDIAVIASSKGRHTLIDFFPPGGVVPKMAVYGSNVEGLLCRFWRDEWRGPAASARLTIVNNADVQATVSRVVLPRRGLSMFYNPVTGGIAASPIRMSVRDIDSADVWLEEAEPGEGFIEVPLVERDRRLFEALGPLVPGRIAMIWGI | not soluble
MASSSATLSLCSTFSAHCNVNSRRSSTILCSLSKPSLNLAKPLTGFLSPSTASTSRTAFTVAPKFAESVVEAEPETTDIEAVVVSDVSEVTEEKAKREEIFAVIMVGGRQYIVFPGRYLYTQRLKDANVDDQIVLNKVLLVGTKTHTYIGKPVVTNATVHAVVESQGLNDKVVVFKYKPKKKYRRNIGHRQPNTRIRITGITGYEEYPASPNVAVGEVNLLEHHHHHH | not soluble
MGGDFGPSVTVPAALQALNSNSQLTLLLVGNSDAITPLLAKADFEQRSRLQIIPAQSVIASDARPSQAIRASRGSSMRVALELVKEGRAQACVSAGNTGALMGLAKLLLKPLEGIERPALVTVLPHQQKGKTVVLDLGANVDCDSTMLVQFAIMGSVLAEEVVEIPNPRVALLNIGEEEVKGLDSIRDASAVLKTIPSINYIGYLEANELLTGKTDVLVCDGFTGNVTLKTMEGVVRMFLSLLKSQGEGKKRSWWLLLLKRWLQKSLTRRFSHLNPDQYNGACLLGLRGTVIKSHGAANQRAFAVAIEQAVQAVQRQVPQRIAARLESVYPAGFELLDGGKSGTLR | soluble
MGSDKIHHHHHHMSFDPFGDFETTGYLRNSLGLKDPAEVKENEHFSFEMGLDEALSYLERTKNLNYQALLQVHRLLFEKFYPWAGRDRLELVPHLSVWKGPKGAPRRTFFESPAMIERAVDYALSLASKKQGFMQKPGEVMGLLCFAHPFLDGNGRSILLFYMELSYRAGFAIDWASTRKDDYLQALDDEIHNPGKGHLDRYLVPFVVPIHSRDQWPEIIGQINGLDGMDGENITYENLDDPEVQKVYAAYHAEHPYPAKDGTPDSEP | not soluble
MGSDKIHHHHHHMEQRKRRLPPLKSLLFLESVVRNQSVTAAADELSITHSAVSKQLSQLEVWIGQPLFLEKRKGMIPTAEIGRVAAVLGNAFDEIQDALDELHPKRAAKPPVLRVIAPATLAMRWLIPKLGEFHTSAGETDVMVRPTHTPDNWLEMEFDIAIRRGGLIPPQFLPQSLFAETLSLVATARVAESYRMGQGDQLSQIGLIDVSTRHGELMNWLKLAGLPVAMARQATKLPHFYIALDAMFAGRGALVVPTYLIEDQLSRGELVELFPQSRIQGPSYQVFVNPASGAGNLAKGFVDWIKRAIPSVAQYAETR | not soluble
MIRVKRLDHVQICIPFGAEDEARAFYTGVLGFQEIEKPESLKGNGGLWYKVGDIQLHIGAENRDGYNSKSHPAFEVEDVEAARRYLEEHGVATQDEKPIPGVKRFSFRDPFRNRIELLEKIM | not soluble
GMSTPTPDTDVEQVGLANTAFYEAMERGDFETLSSLWLTPADLGVDEEYHDPADAGVVSCVHPGWPVLSGRGEVLRSYALIMANTEYIQFFLTDVHVSVTGDTALVTCTENILSGGPPPDDSDELGPLVGQLVVATNVFRRTPDGWKLWSHHASPVLAETGAEEGDESPD | soluble
MSELNLSPDKLTVLLMGGSFGAGNIKETLDELLDTDRDFQILVITGKNESLKEKIEKKLMSRYHDKNVCVLGYTDKMNDILASIDVLVSKPGGLTTTEALLKDVPMIVPYYIPGQEEENLDFLSNCGAALRTTKKYNLSILLKVLIDDPSRLEMLKRNIKSIRKSNSAQNIANLILNIISGLEHHHHHH | not soluble
MANLFKLGAENIFLGRKAATKEEAIRFAGEQLVKGGYVEPEYVQAMLDREKLTPTYLGESIAVPHGTVEAKDRVLKTGVVFCQYPEGVRFGEEEDDIARLVIGIAARNNEHIQVITSLTNALDDESVIERLAHTTSVDEVLELLAGRK | soluble
MVPLVAVVSGPRAQLFACLLRLGTQQVGPLQLHTGASHAARNHYEVLVLGGGSGGITMAARMKRKVGAENVAIVEPSERHFYQPIWTLVGAGAKQLSSSGRPTASVIPSGVEWIKARVTELNPDKNCIHTDDDEKISYRYLIIALGIQLDYEKIKGLPEGFAHPKIGSNYSVKTVEKTWKALQDFKEGNAIFTFPNTPVKCAGAPQKIMYLSEAYFRKTGKRSKANIIFNTSLGAIFGVKKYADALQEIIQERNLTVNYKKNLIEVRADKQEAVFENLDKPGETQVISYEMLHVTPPMSPPDVLKTSPVADAAGWVDVDKETLQHRRYPNVFGIGDCTNLPTSKTAAAVAAQSGILDRTISVIMKNQTPTKKYDGYTSCPLVTGYNRVILAEFDYKAEPLETFPFDQSKERLSMYLMKADLMPFLYWNMMLRGYWGGPAFLRKLFHLGMS | not soluble
MAHHHHHHMLRCSMLRRSMGPGASYVNTVFDTVAKRYDLMNDLLSLGIHRRWKQHFVNDYVRPCPGGKFLDVAGGTGDIAFRIIDGVRLKEEVFGLVPTLRYLTEVVVLDANENMIREGEARAAREGYLDVKWVIGKGEELPFDDMSFDSYTVSFGIRNFSDRPKALREAYRVLKVGGVLNVLEFSKVTCPFLSLPYDVWSYGFIPMAGQILVDRESYQYLVDSIRAFPDQEEFAKMISDAGFGYVRYENLTGGIACIHTAVKTEAVRVKPEKSPLESVATKAKEEKNSVDDEQLNPA | not soluble
QTVLKPKVYVRARPKDMNGQGALLSGSVVDIGSGAIENRGGLIAGREALILNAQNIKNLQGDLQGKNIFAAAGSDITNTGSIGAEN | not soluble
MGSDKIHHHHHHMLADLPIALNPHEPTSIPTQLTEQIRRLVARGILTPGDPLPSSRSLSTQLGVSRGSVVTAYDQLAGEGYLSTARGSGTTINPDLHLLKPVEIEKKETSRSVPPPLLNLSPGVPDTATLADSAWRAAWREACAKPPTHSPEQGLLRLRIEIADHLRQMRGLMVEPEQIIVTAGAREGLSLLLRTMDAPARIGVESPGYPSLRRIPQVLGHETIDVPTDESGLVPRALPHDLNALLVTPSHQYPYGGSLPADRRTALVAWAEANDALLIEDDFDSELRYVGMPLPPLRALAPDRTILLGTFSSVITPQVACGYLIAPTPQARVLATLRGILGQPVGAITQHALASYLASGALRRRTQRLRRLYRHRRSIVQDTLGDLPNTQLRPINGGLHAVLLCDKPQDLVVTTLASRGLNVTALSHYWGGTGADNGIVFGFGSHDEDTLRWVLAEISDAVSLG | not soluble
MSLNMFWFLPTHGDGHYLGTEEGSRPVDHGYLQQIAQAADRLGYTGVLIPTGRSCEDAWLVAASMIPVTQRLKFLVALRPSVTSPTVAARQAATLDRLSNGRALFNLVTGSDPQELAGDGVFLDHSERYEASAEFTQVWRRLLQRETVDFNGKHIHVRGAKLLFPAIQQPYPPLYFGGSSDVAQELAAEQVDLYLTWGEPPELVKEKIEQVRAKAAAHGRKIRFGIRLHVIVRETNDEAWQAAERLISHLDDETIAKAQAAFARTDSVGQQRMAALHNGKRDNLEISPNLWAGVGLVRGGAGTALVGDGPTVAARINEYAALGIDSFVLSGYPHLEEAYRVGELLFPLLDVAIPEIPQPQPLNPQGEAVANDFIPRKVAQS | soluble
RNAAHQLYYRPTPDDGYLLAGYPWFDVRARDLFVALPGCTLCVEAPERFERIVNTVIPAMERYMRLHEDDDTIHGLHEPDVGIWAIWAIQQYARRNGLEAAKRFGSFVSEVVSYYLSAQHPTAQIRENGLLYVLGTGFPLSWMDAKLNGKAVIPREGYLVELNALWYNALCFERELNGEKPEIGEIISRIERSFPDTFLNCYNYLFDYVQDGKAQDWSVRPNMLFAISLPYSPLQRDRQLQVLEIITRELLTPKGLRSLSPKSEGYRPYCRGKQEERELAYYNGSVWPWLLGQYTEAYLRLYGNSGVTFLERMLIGMEEELQMHGIGTISELFDGNPPFMGRGAISFAMSVGEILRAKELLNRTESDMHLSVRHMYNYTKWKG | not soluble
MILSSYNTIQSVFCCCCCCSVQKRQMRTQISLSTDEELPEKYTQHRRPWLSQLSNKKQSNTGRVQPSKRKPLPPLPPSEVAEEKIQVKALYDFLPREPCNLALRRAEEYLILEKYNPHWWKARDRLGNEGLIPSNYVTENKITNLEIYEWYHRNITRNQAEHLLRQESKEGAFIVRDSRHLGSYTISVFMGARRSTEAAIKHYQIKKNDSGQWYVAERHAFQSIPELIWYHQHNAAGLMTRLRYPVGLMGSCLPATAGFSYGKVCTHAEVK | soluble
